For 39 variants, self-cleavage results are on record in the RNAGym collection of RNA variant scans (doi:10.7554/elife.80360).

B1: CPEB3 Ribozyme (parent)
chain: GGGGGCCACAGCAGAAGCGUUCACGUCGCGGCCCCUGUCAGAUUCUGGUGAAUCUGCGAAUUCUGCUGU

This data set covers variants of B1. As to the kind of experiment: self-cleavage, relative activity (ratio to wild type); higher = more cleavage; co-transcriptional.
For the variant GGGGGCCACAGCAGAAGCGUUCACGUCGCGGCCCCUGUCAGAUUCUGGUGAAUCAGCGAAUUCUACUGU [U55A G65A], the self-cleavage came to 0.581.

With GGGGGCCACAGCAGAAGCGUUCACGUCGCGGCCCCUGUCAGAUUCUGGUGAAUCGACGAAUUCUGCUGU [U55G G56A], the self-cleavage was 0.963.

For GGGGGCCACAGCAGAAGCGUUCACGUCGCGGCCCCUGUCAGAUUCUGGUGAAUCGGGGAAUUCUGCUGU [U55G C57G], the self-cleavage was determined as 0.39.

With GGGGGCCACAGCAGAAGCGUUCACGUCGCGGCCCCUGUCAGAUUCUGGUGAAUCGGUGAAUUCUGCUGU [U55G C57U], the self-cleavage is 0.378.

Consider GGGGGCCACAGCAGAAGCGUUCACGUCGCGGCCCCUGUCAGAUUCUGGUGAAUCAGCGAAUUAUGCUGU [U55A C63A], for which the self-cleavage is 0.464.

Regarding GGGGGCCACAGCAGAAGCGUUCACGUCGCGGCCCCUGUCAGAUUCUGGUGAAUCAGCGAAUUGUGCUGU [U55A C63G], the self-cleavage turned out to be 0.438.

On to GGGGGCCACAGCAGAAGCGUUCACGUCGCGGCCCCUGUCAGAUUCUGGUGAAUCGGCGAAUUCUGUUGU [U55G C66U], for which the self-cleavage stood at 0.681.

GGGGGCCACAGCAGAAGCGUUCACGUCGCGGCCCCUGUCAGAUUCUGGUGAAUCGGCGAAUUCUGAUGU [U55G C66A]: the self-cleavage was 0.437.

Regarding GGGGGCCACAGCAGAAGCGUUCACGUCGCGGCCCCUGUCAGAUUCUGGUGAAUCCGCAAAUUCUGCUGU [U55C G58A], the self-cleavage turned out to be 0.91.

As to GGGGGCCACAGCAGAAGCGUUCACGUCGCGGCCCCUGUCAGAUUCUGGUGAAUCCGCCAAUUCUGCUGU [U55C G58C], the self-cleavage worked out at 0.918.

For the variant GGGGGCCACAGCAGAAGCGUUCACGUCGCGGCCCCUGUCAGAUUCUGGUGAAUCCGCUAAUUCUGCUGU [U55C G58U], the self-cleavage worked out at 0.968.

In the case of GGGGGCCACAGCAGAAGCGUUCACGUCGCGGCCCCUGUCAGAUUCUGGUGAAUCAGCGAAUUCUGAUGU [U55A C66A], the self-cleavage turned out to be 0.561.

GGGGGCCACAGCAGAAGCGUUCACGUCGCGGCCCCUGUCAGAUUCUGGUGAAUCAGCGAAUUCUGUUGU [U55A C66U]: the self-cleavage was 0.944.

Regarding GGGGGCCACAGCAGAAGCGUUCACGUCGCGGCCCCUGUCAGAUUCUGGUGAAUCAGCGAAUUCUGGUGU [U55A C66G], the self-cleavage worked out at 0.68.

For GGGGGCCACAGCAGAAGCGUUCACGUCGCGGCCCCUGUCAGAUUCUGGUGAAUCGGCAAAUUCUGCUGU [U55G G58A], the self-cleavage was found to be 0.644.

Take GGGGGCCACAGCAGAAGCGUUCACGUCGCGGCCCCUGUCAGAUUCUGGUGAAUCGGCCAAUUCUGCUGU [U55G G58C]: the self-cleavage was 0.964.

In the case of GGGGGCCACAGCAGAAGCGUUCACGUCGCGGCCCCUGUCAGAUUCUGGUGAAUCGGCGAAUUCCGCUGU [U55G U64C], the self-cleavage was 0.411.

As for GGGGGCCACAGCAGAAGCGUUCACGUCGCGGCCCCUGUCAGAUUCUGGUGAAUCGGCGAAUUCAGCUGU [U55G U64A], the self-cleavage came out at 0.371.

With GGGGGCCACAGCAGAAGCGUUCACGUCGCGGCCCCUGUCAGAUUCUGGUGAAUCAGCGAUUUCUGCUGU [U55A A60U], the self-cleavage came out at 0.298.

Turning to GGGGGCCACAGCAGAAGCGUUCACGUCGCGGCCCCUGUCAGAUUCUGGUGAAUCAGCGAGUUCUGCUGU [U55A A60G], the self-cleavage came out at 0.615.

As for GGGGGCCACAGCAGAAGCGUUCACGUCGCGGCCCCUGUCAGAUUCUGGUGAAUCAGCGGAUUCUGCUGU [U55A A59G], the self-cleavage came out at 0.981.

With GGGGGCCACAGCAGAAGCGUUCACGUCGCGGCCCCUGUCAGAUUCUGGUGAAUCAGCGCAUUCUGCUGU [U55A A59C], the self-cleavage came out at 0.394.

GGGGGCCACAGCAGAAGCGUUCACGUCGCGGCCCCUGUCAGAUUCUGGUGAAUCAGCGUAUUCUGCUGU [U55A A59U]: the self-cleavage was 0.456.

GGGGGCCACAGCAGAAGCGUUCACGUCGCGGCCCCUGUCAGAUUCUGGUGAAUCCGCGAAUUCUGCUCU [U55C G68C]: the self-cleavage was found to be 0.977.

As for GGGGGCCACAGCAGAAGCGUUCACGUCGCGGCCCCUGUCAGAUUCUGGUGAAUCCGCGAAUUCUGCUUU [U55C G68U], the self-cleavage turned out to be 0.908.

As for GGGGGCCACAGCAGAAGCGUUCACGUCGCGGCCCCUGUCAGAUUCUGGUGAAUCCGAGAAUUCUGCUGU [U55C C57A], the self-cleavage was determined as 0.367.

GGGGGCCACAGCAGAAGCGUUCACGUCGCGGCCCCUGUCAGAUUCUGGUGAAUCGGCGACUUCUGCUGU [U55G A60C]: the self-cleavage stood at 0.296.

For GGGGGCCACAGCAGAAGCGUUCACGUCGCGGCCCCUGUCAGAUUCUGGUGAAUUUGCGAAUUCUGCGGU [C54U U67G], the self-cleavage was determined as 0.987.

GGGGGCCACAGCAGAAGCGUUCACGUCGCGGCCCCUGUCAGAUUCUGGUGAAUUUGCGAAUUCUGCCGU [C54U U67C]: the self-cleavage amounted to 1.01.

Take GGGGGCCACAGCAGAAGCGUUCACGUCGCGGCCCCUGUCAGAUUCUGGUGAAUCAGCGAAUUCUGCUGC [U55A U69C]: the self-cleavage amounted to 1.06.

For GGGGGCCACAGCAGAAGCGUUCACGUCGCGGCCCCUGUCAGAUUCUGGUGAAUCAGCGAAUUCUGCUGA [U55A U69A], the self-cleavage stood at 1.02.

As to GGGGGCCACAGCAGAAGCGUUCACGUCGCGGCCCCUGUCAGAUUCUGGUGAAUCCGCGAAUUCUGCCGU [U55C U67C], the self-cleavage came out at 0.912.

On to GGGGGCCACAGCAGAAGCGUUCACGUCGCGGCCCCUGUCAGAUUCUGGUGAAUCCGCGAAAUCUGCUGU [U55C U61A], for which the self-cleavage was 0.604.

In the case of GGGGGCCACAGCAGAAGCGUUCACGUCGCGGCCCCUGUCAGAUUCUGGUGAAUCCGCGAACUCUGCUGU [U55C U61C], the self-cleavage came to 0.407.

Consider GGGGGCCACAGCAGAAGCGUUCACGUCGCGGCCCCUGUCAGAUUCUGGUGAAUCGGCGAAUUCUACUGU [U55G G65A], for which the self-cleavage is 0.408.

As for GGGGGCCACAGCAGAAGCGUUCACGUCGCGGCCCCUGUCAGAUUCUGGUGAAUCGGCGAAUUCUUCUGU [U55G G65U], the self-cleavage turned out to be 0.307.

With GGGGGCCACAGCAGAAGCGUUCACGUCGCGGCCCCUGUCAGAUUCUGGUGAAUCGGCGAAUUCUCCUGU [U55G G65C], the self-cleavage stood at 0.417.

Consider GGGGGCCACAGCAGAAGCGUUCACGUCGCGGCCCCUGUCAGAUUCUGGUGAAUCAGCGAAUUCGGCUGU [U55A U64G], for which the self-cleavage worked out at 0.613.

As to GGGGGCCACAGCAGAAGCGUUCACGUCGCGGCCCCUGUCAGAUUCUGGUGAAUCAGCGAAUUCCGCUGU [U55A U64C], the self-cleavage was determined as 0.479.
